The record followed here is article PMC8059062 (The Journal of Biological Chemistry, 2021).

Ends that are not written are not given here.

For assay [1], the target named is T1, full-length FGF12A (aa 1-243) (human, UniProt P61328-1 1-243).
T1 construct: four nonnative residues left at the N terminus after removal of the His-GST tag with 3C protease; human FGF12A (A-type splice variant of FGF12), full-length, aa 1-243; Obtained only as the FGF12A+NaV1.2CTD complex; not shown: His-GST, N-terminal, cleaved
T1 sequence: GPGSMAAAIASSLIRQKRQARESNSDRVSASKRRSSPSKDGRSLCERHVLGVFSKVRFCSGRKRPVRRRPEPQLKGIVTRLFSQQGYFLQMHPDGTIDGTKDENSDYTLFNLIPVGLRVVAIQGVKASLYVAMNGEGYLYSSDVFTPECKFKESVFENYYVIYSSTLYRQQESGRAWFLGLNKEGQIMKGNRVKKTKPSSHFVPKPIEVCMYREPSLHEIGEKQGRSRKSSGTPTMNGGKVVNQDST
The experiment in a line: co-purification after refolding; denatured His-GST-FGF12A refolded by rapid dilution at 4 C into buffer with CaM+NaV1.2CTD (0.2 uM); tag cleaved, nickel resin repass, anion exchange (pH 8.5-7.4, KCl 0-300 mM) removes CaM. To be noted: both partners purified.

Assay [2] addresses T2, calmodulin, wild type, full-length (aa 1-148) (human, UniProt P0DP23 1-149).
T2 construct: human calmodulin, full-length, aa 1-148; numbers count on: the protein without the initial Met (UniProt numbers are one higher); Ca2+-saturated ((Ca2+)4-CaM) and Ca2+-depleted (apo) states are the same molecule; the state is told by the assay; 15N-labelled in some NMR samples; also called CaM; WT CaM; source: bacterially overexpressed (pT7-7 vector) and purified; also bacterially coexpressed with …
The experiment in a line: other fluorescence titration; YFP-CFP FRET biosensor (>=1 nM) with Ca2+-saturated WT or mutant CaM, emission spectra and equilibrium titrations; 50 mM HEPES, 100 mM KCl, 1 mM MgCl2, 50 uM EGTA, 5 mM NTA, 1.5 uM BSA, 500 uM DTT, 1 mM CaCl2, pH 7.4, 22 C.

Assay [3] addresses T2, calmodulin, wild type, full-length (aa …). The assay can be described thus: not stated; (Ca2+)4-CaM binding to NaV IQ motifs; data not shown.
For assay [4] the target is unchanged. The experiment in a line: NMR 15N-HSQC chemical shift comparison; copurified 1:1 complexes, one partner 15N-labelled (290-600 uM), compared with isolated (Ca2+)2-CaMN and (Ca2+)2-CaMC and with each other; 50 mM HEPES, 100 mM KCl, 1 mM MgCl2, 50 uM EGTA, 5 mM NTA, 10 mM CaCl2, pH 7.4, 25 C. As to conditions: both partners purified.

B1: NaV1.2CTD (fragment of the NaV1.2 C-terminal domain, residues 1777-1937, with EFL and IQ motif) (domain or fragment, human)
chain: GPGSENFSVATEESAEPLSEDDFEMFYEVWEKFDPDATQFIEFAKLSDFADALDPPLLIAKPNKVQLIAMDLPMVSGDRIHCLDILFAFTKRVLGESGEMDALRIQMEERFMASNPSKVSYEPITTTLKRKQEEVSAIIIQRAYRRYLLKQKVKKVSSIYKKDKG
notes: four nonnative residues left at the N terminus after removal of the His-GST tag with 3C protease; human NaV1.2 (SCN2A) C-terminal domain fragment, aa 1777-1937, contains the EF-hand like domain and the IQ motif; source: bacterial coexpression with CaM, copurified; not shown: His-GST, N-terminal, cleaved
For the molecule B1, the binding result in assay [1] is listed as “binds”.

B2: FGF11A_(CaMBD) biosensor (FGF11A CaMBD, residues 36-62, between YFP and CFP) (domain or fragment)
chain: KSLCQKQLLILLSKVRLCGGRPARPDR
modifications: cysteine pairing not given here; also: fused between YFP and CFP
notes: source: expressed from a pET21B vector
For the molecule B2, the equilibrium dissociation constant (Kd) (as a rule, a measure of binding affinity in units of concentration) in assay [2] is 19 nM.

B3: FGF12A_(CaMBD) biosensor (FGF12A CaMBD, residues 38-64, between YFP and CFP) (domain or fragment)
chain: RSLCERHVLGVFSKVRFCSGRKRPVRR
modifications: cysteine pairing not given here; also: fused between YFP and CFP
notes: as for B2
B3: the Kd in assay [2] came to 107 nM.

B4: FGF12ALTP biosensor (FGF12A LTP, residues 1-23, between YFP and CFP) (domain or fragment)
chain: MAAAIASSLIRQKRQARESNSDR
notes: as for B2
On to B4, for which binding in assay [2] was characterised by a dissociation constant (Kd) of 576 nM.

B5: NaV1.2 IQ motif (domain or fragment)
chain: EEVSAIIIQRAYRRYLLKQKVKKVSSIYKK
notes: IQ motif of NaV1.2; also called IQ motif of NaV1.2
Turning to B5, in assay [3], the affinity, expressed as Kd, was 19.8 nM.

B6: FGF13A_(CaMBD) biosensor (FGF13A CaMBD, residues 35-60, between YFP and CFP) (domain or fragment)
chain: KTSCDKNKLNVFSRVKLFGSKKRRRR
modifications: also: fused between YFP and CFP
notes: as for B2
With B6, binding in assay [2] was characterised by a dissociation constant (Kd) of 13 nM.

B7: FGF12ANTD (FGF12A N-terminal domain, aa 1-70) (domain or fragment)
chain: GPGSMAAAIASSLIRQKRQARESNSDRVSASKRRSSPSKDGRSLCERHVLGVFSKVRFCSGRKRPVRRRPEPQL
notes: four nonnative residues left at the N terminus after removal of the His-GST tag with 3C protease; human FGF12A N-terminal domain, aa 1-70, contains LTP and CaMBD; 15N-labelled in some NMR samples; source: bacterial coexpression with CaM, copurified; not shown: His-GST, N-terminal, cleaved
Consider B7, for which the binding result in assay [4] is “binds”.
